# Assay results published in patent US11448657B2, “Methods and kits for assessing Heparanase procoagulant activity, compositions comprising Heparanase, and methods for the treatment of coagulation-related disorders” (RAMBAM MED-TECH, priority 2011, dated 2022).
# “Also recorded” adds a separate entry of the source.
# Tested on: whole blood
# Assay: Thromboelastography in citrated whole blood
# Set-up: species or system human
# Description: Thromboelastogram studies. The assay includes addition of factor VIIa, X and calcium to blood drawn into citrate in the presence or absence of heparanase. Each time, a sample with addition of heparanase (Hepa) and a sample without (Con)—were analyzed in parallel. R—The period of latency from the time that the blood was placed in the analyzer until the initial fibrin formation: this represents the coagulation factor activation.
# Angle—measures the rapidity of fibrin build-up and cross-linking: this represents the coagulation factor amplification. MA—A direct function of the maximum dynamic properties of fibrin and platelet bonding: signifies the ultimate strength of the clot. […] Representative results are shown.
# The assay was performed according to the manufacturer's recommendations. Briefly, 3 mL of healthy donor's whole blood were collected in a bottle containing 3.2% (0.12M) sodium citrate and stored at room temperature. Recalcification and TEG® measurements at 37° C. were performed in disposable cups of the Thrombelastograph® coagulation analyzer (Haemoscope Corporation, Skokie, Ill., USA).
# Next, the procoagulant effect of heparanase in human plasma was tested. Using an ELISA method [Shafat I. et al., Biochem Biophys Res. Commun. […] When heparanase, factor VIIa and factor X were incubated (15 min, 37° C.) with pooled normal human plasma from five healthy donors, followed by the addition of a chromogenic substrate for factor Xa, a 7- to 8-fold increase in factor Xa levels was obtained com-pared to levels in plasma incubated in the absence of heparanase (FIG. 2). In this condition the coagulation was mainly dependent on the concentration of endogenous TF, as described previously [Suefuji H. et al., Am Heart J. 1997, 134(2 Pt. 1):253-259; Kim H K et al., Cardiology. 2000, 93(1-2):31-36]. The effect of heparanase was also tested in whole blood using thromboelastography. […]
molecule,measurement,setting,value
"heparanase: single chain GS3 active heparanase, comprised of the 8 kDa and 50 kDa heparanase heterodimer (8+50), recombinant human (protein, listed as Homo sapiens, single-chain GS3 linker) chain 1: DPAQDVVDLDFFTQEPLHLVSPSFLSVTIDANLATDPRFLILLGSPKLRTLARGLSPAYLRFGGTKTDFLIFDPKKE chain 2: DPGKKFKNSTYSRSSVDVLYTFANCSGLDLIFGLNALLRTADLQWNSSNAQLLLDYCSSKGYNISWELGNEPNSFLKKADIFINGSQLGEDFIQLHKLLRKSTFKNAKLYGPDVGQPRRKTAKMLKSFLKAGGEVIDSVTWHHYYLNGRTATREDFLNPDVLDIFISSVQKVFQVVESTRPGKKVWLGETSSAYGGGAPLLSDTFAAGFMWLDKLGLSARMGIEVVMRQVFFGAGNYHLVDENFDPLPDYWLSLLFKKLVGTKVLMASVQGSKRRKLRVYLHCTNTDNPRYKEGDLTLYAINLHNVTKYLRLPYPFSNKQVDKYLLRPLGPHGLLSKSVQLNGLTLKMVDDQTLPPLMEKPLRPGSSLGLPAFSYSFFVIRNAKVAACI",time to clot formation (R) at the highest dose,heparanase 4 μM,effect on time to clot formation was abolished; also recorded: no effect on R is detected
same,thrombus strength (MA),increasing doses of heparanase,increase in thrombus strength; also recorded: stronger
same,time to clot formation (R),"increasing doses of heparanase, factor VIIa 0.04 μM, factor X 1.4 μM, recalcified blood",significant reduction in time to clot formation; also recorded: significantly faster
